Data: paper PMC10912200 (Nature Communications, 2024)

T1: TcsH^2210-2618, His-tagged (Paeniclostridium sordellii, UniProt M9ZTT7 2210-2618)
T1 construct: not shown: His, C-terminal, kept
T1 sequence: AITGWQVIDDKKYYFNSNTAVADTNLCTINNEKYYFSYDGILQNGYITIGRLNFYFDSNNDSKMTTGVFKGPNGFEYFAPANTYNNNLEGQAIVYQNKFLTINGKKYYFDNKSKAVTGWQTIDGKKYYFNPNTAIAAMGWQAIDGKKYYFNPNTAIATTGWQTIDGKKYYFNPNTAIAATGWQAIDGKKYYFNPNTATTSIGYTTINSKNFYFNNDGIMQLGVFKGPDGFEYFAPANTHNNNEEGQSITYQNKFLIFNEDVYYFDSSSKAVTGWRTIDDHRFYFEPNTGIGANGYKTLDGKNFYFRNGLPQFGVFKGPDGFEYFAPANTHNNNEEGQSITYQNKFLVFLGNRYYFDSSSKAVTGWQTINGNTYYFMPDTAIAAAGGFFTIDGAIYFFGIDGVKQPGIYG

T2: MBP-fused TcsH^2236-2618 (Paeniclostridium sordellii, UniProt M9ZTT7 2236-2618)
T2 construct: source: E. coli BL21(DE3), purified (Amylose resin, SEC)
T2 sequence: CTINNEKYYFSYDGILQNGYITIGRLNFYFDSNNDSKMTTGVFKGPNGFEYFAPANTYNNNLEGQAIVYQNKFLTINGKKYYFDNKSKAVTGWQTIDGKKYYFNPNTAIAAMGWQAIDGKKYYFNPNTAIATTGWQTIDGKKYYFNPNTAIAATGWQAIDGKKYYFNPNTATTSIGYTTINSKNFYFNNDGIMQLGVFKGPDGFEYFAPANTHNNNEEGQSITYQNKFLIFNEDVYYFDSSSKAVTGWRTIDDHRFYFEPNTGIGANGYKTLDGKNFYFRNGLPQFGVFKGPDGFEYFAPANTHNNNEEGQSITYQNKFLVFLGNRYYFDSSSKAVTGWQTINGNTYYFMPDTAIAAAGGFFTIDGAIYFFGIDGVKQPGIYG


How the values were obtained:
Details in all cases: both partners purified
[1] = biological target: T1, TcsH^2210-2618, His-tagged; test: pull-down
[2] = biological target: T1, TcsH^2210-2618, His-tagged; test: BLI
MBP-fused TcsH^2236-2618 = biological target: T2, MBP-fused TcsH^2236-2618; test: BLI

Binder | binding result [1] | Kd [2] | Kd (MBP-fused TcsH^2236-2618)
Fc-His-TMPRSS2^ECD [change] (Fc fusion, source: Expi293F, transfected, purified from the supernatant (TALON resin, SEC)) WKFMGSKCSNSGIECDSSGTCINPSNWCDGVSHCPGGEDENRCVRLYGPNFILQVYSSQRKSWHPVCQDDWNENYGRAACRDMGYKNNFYSSQGIVDDSGSTSFMKLNTSAGNVDIYKKLYHSDACSSKAVVSLRCIACGVNLNSSRQSQIVGGESALPGAWPWQVSLHVQNVHVCGGSIITPEWIVTAAHCVEKPLNNPWHWTAFAGILRQSFMFYGAGYQVEKVISHPNYDSKTKNNDIALMKLQKPLTFNDLVKPVCLPNPGMMLQPEQLCWISGWGATEEKGKTSEVLNAAKVLLIETQRCNSRYVYANLITPAMICAGFLQGNVDSCQGDSGGPLVTSKNNIWWLIGDTSWGSGCAKAYRPGVYGNVMVFTDWIYRQMRADG | binds |  | 
Fc-His-TMPRSS2^ECD [change] (Fc fusion, source: Expi293F, transfected, purified from the supernatant (TALON resin, SEC)) WKFMGSKCSNSGIECDSSGTCINPSNWCDGVSHCPGGEDENRCVRLYGPNFILQVYSSQRKSWHPVCQDDWNENYGRAACRDMGYKNNFYSSQGIVDDSGSTSFMKLNTSAGNVDIYKKLYHSDACSSKAVVSLRCIACGVNLNSSRQSQIVGGESALPGAWPWQVSLHVANVHVCGGSIITPEWIVTAAHCVEKPLNNPWHWTAFAGILRQSFMFYGAGYQVEKVISHPNYDSKTKNNDIALMKLQKPLTFNDLVKPVCLPNPGMMLQPEQLCWISGWGATEEKGKTSEVLNAAKVLLIETQRCNSRYVYDNLITPAMICAGFLQGNVDSCQGDSGGPLVTSKNNIWWLIGDTSWGSGCAKAYRPGVYGNVMVFTDWIYRQMRADG | binds |  | 
Fc-His-TMPRSS2^ECD (Fc fusion) WKFMGSKCSNSGIECDSSGTCINPSNWCDGVSHCPGGEDENRCVRLYGPNFILQVYSSQRKSWHPVCQDDWNENYGRAACRDMGYKNNFYSSQGIVDDSGSTSFMKLNTSAGNVDIYKKLYHSDACSSKAVVSLRCIACGVNLNSSRQSQIVGGESALPGAWPWQVSLHVQNVHVCGGSIITPEWIVTAAHCVEKPLNNPWHWTAFAGILRQSFMFYGAGYQVEKVISHPNYDSKTKNNDIALMKLQKPLTFNDLVKPVCLPNPGMMLQPEQLCWISGWGATEEKGKTSEVLNAAKVLLIETQRCNSRYVYDNLITPAMICAGFLQGNVDSCQGDSGGPLVTSKNNIWWLIGDTSWGSGCAKAYRPGVYGNVMVFTDWIYRQMRADG |  | 0.37 nM | 0.75 nM
Fc-His-TMPRSS2^ECD [change] (Fc fusion, source: Expi293F, transfected, purified from the supernatant (TALON resin, SEC)) WKFMGSKCSNSGIECDSSGTCINPSNWCDGVSHCPGGEDENRCVRLYGPNFILQVYSSQRKSWHPVCQDDWNENYGRAACRDMGYKNNFYSSQGIVDDSGSTSFMKLNTSAGNVDIYKKLYHSDACSSKAVVSLRCIACGVNLNSSRQSQIVGGESALPGAWPWQVSLHVQNVHVCGGSIITPEWIVTAAHCVEKPLNNPWHWTAFAGILRQSFMFYGAGYQVEKVISHPNYDSKTKNNDIALMKLQKPLTFNDLVKPVCLPNPGMMLQPEQLCWISGWGATEEKGKTSEVLNAAKVLLIETQRCNSRYVYDNRITPAMICAGFLQGNVDSCQGDSGGPLVTSKNNIWWLIGDTSWGSGCAKAYRPGVYGNVMVFTDWIYRQMRADG | binds |  | 
Fc-His-TMPRSS2^ECD [change] (Fc fusion, source: Expi293F, transfected, purified from the supernatant (TALON resin, SEC)) WKFMGSKCSNSGIECDSSGTCINPSNWCDGVSHCPGGEDENRCVRLYGPNFILQVYSSQRKSWHPVCQDDWNENYGRAACRDMGYKNNFYSSQGIVDDSGSTSFMKLNTSAGNVDIYKKLYHSDACSSKAVVSLRCIACGVNLNSSRQSQIVGGESALPGAWPWQVSLHRQNVHVCGGSIITPEWIVTAAHCVEKPLNNPWHWTAFAGILRQSFMFYGAGYQVEKVISHPNYDSKTKNNDIALMKLQKPLTFNDLVKPVCLPNPGMMLQPEQLCWISGWGATEEKGKTSEVLNAAKVLLIETQRCNSRYVYDNLITPAMICAGFLQGNVDSCQGDSGGPLVTSKNNIWWLIGDTSWGSGCAKAYRPGVYGNVMVFTDWIYRQMRADG | binds |  | 
Fc-His-TMPRSS2^ECD [change] (Fc fusion, source: Expi293F, transfected, purified from the supernatant (TALON resin, SEC)) WKFMGSKCSNSGIECDSSGTCINPSNWCDGVSHCPGGEDENRCVRLYGPNFILQVYSSQRKSWHPVCQDDWNENYGRAACRDMGYKNNFYSSQGIVDDSGSTSFMKLNTSAGNVDIYKKLYHSDACSSKAVVSLRCIACGVNLNSSRQSQIVGGESALPGAWPWQVSLHVQNVHVCGGSIITPEWIVTAAHCVEKPRNNPWHWTAFAGILRQSFMFYGAGYQVEKVISHPNYDSKTKNNDIALMKLQKPLTFNDLVKPVCLPNPGMMLQPEQLCWISGWGATEEKGKTSEVLNAAKVLLIETQRCNSRYVYDNLITPAMICAGFLQGNVDSCQGDSGGPLVTSKNNIWWLIGDTSWGSGCAKAYRPGVYGNVMVFTDWIYRQMRADG | binds |  | 
Fc-His-TMPRSS2^ECD [change] (Fc fusion, source: Expi293F, transfected, purified from the supernatant (TALON resin, SEC)) WKFMGSKCSNSGIECDSSGTCINPSNWCDGVSHCPGGEDENRCVRLYGPNFILQVYSSQRKSWHPVCQDDWNENYGRAACRDMGYKNNFYSSQGIVDDSGSTSFMKLNTSAGNVDIYKKLYHSDACSSKAVVSLRCIACGVNLNSSRQSQIVGGESALPGAWPWQVSLHVQNVHVCGGSIITPEWIVTAAHCVEKPLNNPWAWTAFAGILRQSFMFYGAGYQVEKVISHPNYDSKTKNNDIALMKLQKPLTFNDLVKPVCLPNPGMMLQPEQLCWISGWGATEEKGKTSEVLNAAKVLLIETQRCNSRYVYDNLITPAMICAGFLQGNVDSCQGDSGGPLVTSKNNIWWLIGDTSWGSGCAKAYRPGVYGNVMVFTDWIYRQMRADG | binds |  | 
